{
  "source": "patent US20160068605A1",
  "about": "(Janssen / Centocor, published 2016)",
  "binders": {"B1": {"name": "I3RB18 (antibody, IgG1, V domains shown)", "VH": "EVQLVQSGAEVKKPGESLKISCKGSGYSFTSYWISWVRQMPGKGLEWMGIIDPSDSDTRYSPSFQGQVTISADKSISTAYLQWSSLKASDTAMYYCARGDGSTDLDYWGQGTLVTVSS", "VL": "EIVLTQSPGTLSLSPGERATLSCRASQSVSSSYLAWYQQKPGQAPRLLIYGASSRATGIPDRFSGSGSGTDFTLTISRLEPEDFAVYYCQQDYGFPWTFGQGTKVEIK", "notes": "IgG1; also called 13RB18; mAb I3RB18"}},
  "key": {"[1]": {"target": "T1, Recombinant human CD123 SP1 ECD-His tag protein (human, UniProt P26951 20-305)", "T1 construct": "bought from R&D Systems (#301-R3/CF); biotinylated for some assays; also called rhCD123 SP1; huCD123 ECD SP1", "T1 sequence": "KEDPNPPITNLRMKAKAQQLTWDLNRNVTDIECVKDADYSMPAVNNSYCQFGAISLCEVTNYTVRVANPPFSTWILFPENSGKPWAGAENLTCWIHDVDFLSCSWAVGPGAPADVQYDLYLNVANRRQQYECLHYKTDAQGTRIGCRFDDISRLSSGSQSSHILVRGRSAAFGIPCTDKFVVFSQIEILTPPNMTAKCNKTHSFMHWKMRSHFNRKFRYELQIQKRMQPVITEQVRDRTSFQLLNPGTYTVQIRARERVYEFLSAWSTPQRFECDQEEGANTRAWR", "assay": "SPR Biacore 3000, captured mAb", "description": "(§1) Kinetic studies were performed at 25° C. using a Biacore 3000 (BIAcore, Inc., now part of GE Healthcare). […] Sheep anti-Human Fd specific antibody (The binding site Prod # PC075) was covalently attached to two flow cells (normally 3 and 4) of the carboxymethyl dextran coated gold surfaces (CM-5 Chip, Biacore). The carboxymethyl groups of dextran were activated with N-Ethyl-N′-(3-Dimethylaminopropyl)carbodiimide (EDC) and N-hydroxysuccinimide (NHS). The antibodies were coupled at pH 4.5 in 10 mM sodium acetate. Any remaining reactive sites on the surface were blocked by reaction with ethanolamine. […] Association data was collected for 2 min followed by 10 min of dissociation. The surface was regenerated with 30 μL of 100 mM H3PO4 100 μL/min. All samples were prepared in D-PBS containing 3 mM EDTA and 0.005% surfactant P20. Data reported is the difference in SPR signal between the flow cell containing the captured antibody or Fab and a reference cell without captured antibody or Fab. Additional instrumental contributions to the signal were removed by subtraction of the data from the blank injection from the reference-subtracted signal. Data were performed in triplicate and analyzed by fitting association and dissociation phases at all concentrations (global fit) with a 1:1 binding model using the BIAevaluation software (BIAcore, Inc.). […] Data presented is an average."}, "[2]": {"target": "T2, Recombinant human CD123 SP2 ECD protein (human, UniProt P26951 101-303)", "T2 construct": "also called rhCD123 SP2; CD123 ECD SP2", "T2 sequence": "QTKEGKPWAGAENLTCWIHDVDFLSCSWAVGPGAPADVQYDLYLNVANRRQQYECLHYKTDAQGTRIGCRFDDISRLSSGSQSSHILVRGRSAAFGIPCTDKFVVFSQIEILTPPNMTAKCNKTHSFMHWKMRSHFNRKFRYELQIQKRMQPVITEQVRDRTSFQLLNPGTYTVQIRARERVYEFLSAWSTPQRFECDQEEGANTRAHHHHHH", "assay": "SPR Biacore 3000, captured mAb", "description": "as §1"}, "[3]": {"target": "T1, Recombinant human CD123 SP1 ECD-His tag …", "assay": "SPR Biacore T200, captured antibody", "description": "Kinetic studies were performed at 25° C. using a Biacore T200 (Biacore, Inc., now part of GE Healthcare). […] The carboxymethyl groups of dextran were activated with N-Ethyl-N′-(3-Dimethylaminopropyl)carbodiimide (EDC) and N-hydroxysuccinimide (NHS). The anti-Fc antibody was coupled at pH 4.5 in 10 mM sodium acetate. Any remaining reactive sites on the surface were blocked by reaction with ethanolamine. […] 40-70 RU of antibody were captured. […] Association data was collected for 2 min followed by 10 min of dissociation. The surface was regenerated with 30 μL of 100 mM H3PO4 100 μL/min, followed by 50 mM NaOH. The samples for kinetic analysis were prepared in PBS-based buffer (D-PBS containing 3 mM EDTA and 0.005% surfactant P20). Data reported is the difference in SPR signal between the flow cell containing the captured antibody and a reference cell without captured antibody. Additional instrumental contributions to the signal were removed by subtraction of the data from the blank injection from the reference-subtracted signal. Data were analyzed by fitting association and dissociation phases at all concentrations (global fit) with a 1:1 binding model using the BIAevaluation software (BIAcore, Inc.)."}, "[4]": {"target": "T3, cyno CD123 ECD displayed on pDisplay-transfected cells (cynomolgus monkey)", "T3 construct": "ECD anchored on the surface of stably transfected HEK293 cells; also called cynoCD123 SP1 cells; cynoCD123 cells", "T3 chain": "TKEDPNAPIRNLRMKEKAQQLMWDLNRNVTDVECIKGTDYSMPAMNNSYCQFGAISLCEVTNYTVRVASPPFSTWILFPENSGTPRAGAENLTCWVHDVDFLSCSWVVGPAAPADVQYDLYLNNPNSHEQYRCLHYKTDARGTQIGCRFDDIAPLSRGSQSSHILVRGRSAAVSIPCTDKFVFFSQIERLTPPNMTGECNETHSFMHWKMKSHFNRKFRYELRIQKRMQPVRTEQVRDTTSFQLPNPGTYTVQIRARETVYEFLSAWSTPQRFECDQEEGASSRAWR", "assay": "MSD-CAT, cynoCD123 cells, assay-1; apparent KD (bivalent)"}, "[5]": {"target": "T3, cyno CD123 ECD displayed on …", "assay": "MSD-CAT on pDisplay cells", "description": "After equilibration the plate was centrifuged for 5 min ˜1000 rpm and free anti-CD3 detected on the supernatant. […] The assay buffer was removed without washing and 50 μL/well of 0.7 μg/mL of biotinylated antigen in assay buffer were added to MSD plates and incubated overnight (˜16 hr at 4° C.). After overnight incubation, the plates were blocked by adding 150 μL/well of assay buffer without removing coating antigen, incubated for ˜1 hr at ambient temperature and washed 5 times with wash buffer (assay buffer without BSA). 50 μL/well of the supernantants from samples plate were transferred to antigen-coated plates, incubated for 60 min, and then washed three times with wash Buffer. After this 50 μL per well of ruthenium labeled detection antibody(anti-human H+L) were added and incubated for 1 hr. After 1 hr the plates were washed and 150 μL of MSD Read Buffer (prepared by diluting 1:4 of stock into d. H₂O) were added per well. The plates were read immediately on the MSD Sector Imager 6000 Reader for luminescence levels. ECL signal detected by MSD was expressed in term of % free antibody in the mixture and the data was analyzed to determine affinity using a user defined equation (derived from the law of mass action) introduced in Prism software."}, "[6]": {"target": "T4, human CD123 SP1 ECD displayed on pDisplay-transfected cells (human, UniProt P26951 20-305)", "T4 construct": "ECD anchored on the surface of stably transfected HEK293 cells by the PDGFR transmembrane domain; also called hCD123 SP1 cells; hCD123 cells", "T4 sequence": "T1 sequence", "assay": "MSD-CAT, hCD123 cells, assay-2; apparent KD (bivalent)"}},
  "data": [
    {"binder": "B1", "values": [
      {"measurement": "Kd", "setting": "[1]", "result": 1200, "unit": "pM"},
      {"measurement": "koff", "setting": "[1]", "result": 0.000808, "unit": "s⁻¹"},
      {"measurement": "kon", "setting": "[1]", "result": 688000, "unit": "M⁻¹ s⁻¹"},
      {"measurement": "Kd", "setting": "[2]", "result": 300, "unit": "pM"},
      {"measurement": "Kd", "setting": "[3]", "result": 935, "unit": "pM"},
      {"measurement": "koff", "setting": "[3]", "result": 0.00072, "unit": "s⁻¹"},
      {"measurement": "kon", "setting": "[3]", "result": 773000, "unit": "M⁻¹ s⁻¹"},
      {"measurement": "Kd", "setting": "[4]", "result": 832, "unit": "pM"},
      {"measurement": "fold weaker than to human CD123 SP1", "setting": "[5]", "result": "> 10", "unit": "fold"},
      {"measurement": "Kd", "setting": "[6]", "result": 343, "unit": "pM"}
    ]}
  ]
}
